Experiment [1] has as its target Recombinant soluble 60-mer human BAFF (His-HuBAFF 134-285) (human, UniProt Q9Y275 134-285). The experiment is described as follows: cell-based or functional assay.
The target in experiment [2] is Recombinant soluble trimeric human BAFF (furin-cleaved human BAFF 134-285) (human, UniProt Q9Y275 134-285). Description: cell-based or functional assay.

B1: 409F12A11 (antibody, V domains shown)
VH: IQLQQSGPELVKPGASMKISCKASGYTFTDKYINWVKQRPGQGLEWIGWIYPGSGNTKYNEKFKGMATLTVDTSSNTAYIHLSSLTSEDSAVYFCARGIIYYYDGSYPYALDYWGQGTSVTVSS
VL: DIVLTQSPASLALSLGQRATISCRATKGVSKSGYSYMHWYQQKPGQPPKLLIYLASNLESGVPARFSGSGSGTDFTLNIHPVEEEDVATYYCQHSRELPLTFGAGTKLELK
Turning to B1, in experiment [1], the “Soluble 60-mer huBAFF (4 pM) Neutralization IC50” value is 16 pM and the “Soluble 60-mer huBAFF (4 pM) Neutralization IC90” value amounted to 44 pM. In experiment [2], the “Soluble trimeric huBAFF (50 pM) Neutralization IC50” value was found to be 31 pM and the “Soluble trimeric huBAFF (50 pM) Neutralization IC90” value came out at 390 pM.

B2: 394F5A5 (antibody, V domains shown)
VH: VTLKESGPGILQPSQTLSLTCSFSGFSLRTFGMGVGWIRQPSGKGLEWLAHIWWNDEKYYNPTLKSRLTISKDTSKNQVFLRIANVDTAVTAAYYCARIGPSITTVVEGFPYWGQGTLVTVSA
VL: DIVMTQSQKFMSTTIGDRVSITCKASQNVGSAVAWYQQKPGQPPKLLIYSTSNRYTGVPDRFTGSRSGTDFTLTVSNMQSEDLADYFCQQYASYPLTFGTGTKLELK
For B2, in experiment [1], the “Soluble 60-mer huBAFF (4 pM) Neutralization IC50” value was 7 pM and the “Soluble 60-mer huBAFF (4 pM) Neutralization IC90” value stood at 29 pM. Further, in experiment [2], the “Soluble trimeric huBAFF (50 pM) Neutralization IC50” value was 16 pM and the “Soluble trimeric huBAFF (50 pM) Neutralization IC90” value was found to be 433 pM.

B3: 418F6D9 (antibody, V domains shown)
VH: QVQLQQSGPELVKPGASVKLSCKASGYTFTDYSIHWVKQSPGQGLEWIGWIYPGSGNTKYNDKFKGKATMTADKSSRTVYMQLSSLTSEESAVYFCARDYRRYYAIDYWGQGTSVTVSS
VL: IVLTQSSASLAVSLGQRATISCRASESVDSYGNSLMHWYQQKPGQPPKLLIYIASNLESGVPARFSGSGSRTDFTLTIDPVEADDAATYYCQQNSEDPRTFGGGTKLEIK
Take B3: in experiment [1], the “Soluble 60-mer huBAFF (4 pM) Neutralization IC50” value turned out to be 27 pM and the “Soluble 60-mer huBAFF (4 pM) Neutralization IC90” value came out at 154 pM. Moreover, in experiment [2], the “Soluble trimeric huBAFF (50 pM) Neutralization IC50” value amounted to 38 pM and the “Soluble trimeric huBAFF (50 pM) Neutralization IC90” value is 491 pM.

B4: 431G5A3 (antibody, V domains shown)
VH: QLQQSGPELVKPGASVKLSCKASGYTFTDYSIHWVKQSPGQGLEWIGWIYPGSDNTKYNDKFKGKASMTADKSSRTVYMHLSSLTSEESAVYFCARDYRRYYAMDYWGQGTSVTVSS
VL: KIVLTQSSASLAVSLGQRATISCRASESVDRYGNSLMHWYQQKPGQPPKLLIYIASNLESGVPARFSGSGSRTDFTLTIDPVEADDAATYYCQQNNEDPRTFGGGTKLEIK
With B4, in experiment [1], the “Soluble 60-mer huBAFF (4 pM) Neutralization IC50” value amounted to 21 pM and the “Soluble 60-mer huBAFF (4 pM) Neutralization IC90” value was found to be 100 pM. Further, in experiment [2], the “Soluble trimeric huBAFF (50 pM) Neutralization IC50” value was determined as 28 pM and the “Soluble trimeric huBAFF (50 pM) Neutralization IC90” value is 336 pM.

B5: 381A6A9 (antibody, V domains shown)
VH: QVQLQQSGPELVKPGGSVKISCKAAGYSLTSYYIHWVKQRPGQGLEWIGLIFPGSGNSKYIEKFKGKATLTADTSSNTAYMQLSSLTSEDSAVYYCTRGDFGNYLAYWYFDVWGTGTTVTVSS
VL: DIKMTQSPSSIYASLGERVTITCKASQDINSYLSWFQQKPGKSPKTLMYRANRLVDGVPSRFSGSGSGQDYSLTISSLEYEDMGNYYCLQYDEFPYTFGGGAKLEIK
Turning to B5, in experiment [1], the “Soluble 60-mer huBAFF (4 pM) Neutralization IC50” value stood at 17 pM and the “Soluble 60-mer huBAFF (4 pM) Neutralization IC90” value is 42 pM. In experiment [2], the “Soluble trimeric huBAFF (50 pM) Neutralization IC50” value was 44 pM and the “Soluble trimeric huBAFF (50 pM) Neutralization IC90” value is 240 pM.

B6: 384D5A2 (antibody, V domains shown)
VH: QVTLKESGPGILQPSQTLSLTCSFSGFSLNTYGMGVGWIRQPSGKGLEWLANIWWNDDKYYNSALKSRLAISKDASNSQVFLKISSVDTTDTATYYCAQVAATIVTTYGAWFAYWGQGTLVTVSA
VL: DIQMTQSPASLSVSVGETVTITCRSSENIYSSLAWYQQKQGKSPQLLVYAATNLAKGVPSRFSGSGSGTQYSLKINSLQSEDFGSYFCQHFWGSPFAFGSGTKLEIK
Take B6: in experiment [1], the “Soluble 60-mer huBAFF (4 pM) Neutralization IC50” value amounted to 15 pM and the “Soluble 60-mer huBAFF (4 pM) Neutralization IC90” value turned out to be 44 pM. Further, in experiment [2], the “Soluble trimeric huBAFF (50 pM) Neutralization IC50” value is 42 pM and the “Soluble trimeric huBAFF (50 pM) Neutralization IC90” value came out at 765 pM.
